Laboratory results published in article PMC2851401 (Journal of molecular biology, 2010).

B1: chimeric rabbit/human Fab SJS-R1 as the selected phage display clone in pC3C (Fab, V domains shown)
VH: QEQLVESGGRLVTPGTALTLTCKVSGFSLSGFWLNWVRQAPGKGLEWVGAIYRGSGSEWYASWAKGRFTISDTSTTVTLKLTSPTTEDTATYFCAADTTDNGYFTIWGPGTLVTVSS
VL: ELVMTQTPSSVSEPVGGTVTIKCQASQSISSWLSWYQQKPGQPPKLLIYDASNLASGVPSRFMGSGSGTEYTLTISGVQREDAATYYCLGGYPAASYRTAFGGGTELEII

Assays:
[1] = target: Rev (Human immunodeficiency virus 1) (UniProt P04325); details: cited from earlier work
[2] = target: biotinylated HIV-1 Rev with C-terminal Avitag (HIV-1, UniProt P04616); assay: ELISA
Sequence of biotinylated HIV-1 Rev with C-terminal Avitag (P04616 whole entry): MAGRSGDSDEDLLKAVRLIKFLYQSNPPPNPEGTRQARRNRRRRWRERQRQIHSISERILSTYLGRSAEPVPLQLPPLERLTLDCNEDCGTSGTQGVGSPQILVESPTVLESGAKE

Molecule | Kd [1] [nM] | binding result [2]
Rev (from UniProt P04325) | 1000 | 
B1 |  | binds
